In US20120122107A1 (AARHUS UNIVERSITET, published 2012):

Key:
[1] = molecular target: T1, recombinant mannan-binding lectin (UniProt P11226 21-248); assay: affinity chromatography on rMBL-coupled beads
T1 construct: Oligomeric collectin; also called rMBL; MBL

BSA = molecular target: T2, BSA (UniProt P02769 25-607); assay: SPR (BIAcore 3000), BSA-coated surface
T2 construct: also called BSA-coated surface
Excerpt: Using SPR we determined the strength of the interaction between MAp44 and MBL, and compared it to that of MASP-3 and MBL. The purity of the rMBL has been reported before and the rMAp44 and rMASP-3 preparations were deemed pure by silver staining of SDS-PAGE gels (FIG. 4A). MBL was coupled to SPR chips at two different densities. An SPR chip, activated and blocked, was used for subtraction of the bulk refractive index background. A BSA-coated surface served as an extra background control, which gave no higher signal than the blank surface for both MASP-3 and MAp44. […] The measurements at the other coupling density of MBL were in agreement for both MASP-3 and MAp44. The calculated KDs were similar to the 0.8 nM reported for the binding of MASP-2 to MBL.
The SPR experiments were similar to those reported (7, 8). Using a BIAcore 3000 instrument (GE Healthcare®), binding of either rMASP-3 or rMAp44 was measured on 10940 RU of rMBL immobilized on a CM5 sensor chip (30 μg rMBL/ml used for derivatization), at a flow rate of 5 μl/min. Equivalent volumes of rMASP-3 and rMAp44 were injected at concentrations from 1 nM to 30 nM. Data were analyzed by global fitting to a 1:1 Langmuir binding model for several concentrations simultaneously using the BIAevaluation 4.1 software (GE Healthcare®).

T2 sequence (P02769 25-607 limits assumed): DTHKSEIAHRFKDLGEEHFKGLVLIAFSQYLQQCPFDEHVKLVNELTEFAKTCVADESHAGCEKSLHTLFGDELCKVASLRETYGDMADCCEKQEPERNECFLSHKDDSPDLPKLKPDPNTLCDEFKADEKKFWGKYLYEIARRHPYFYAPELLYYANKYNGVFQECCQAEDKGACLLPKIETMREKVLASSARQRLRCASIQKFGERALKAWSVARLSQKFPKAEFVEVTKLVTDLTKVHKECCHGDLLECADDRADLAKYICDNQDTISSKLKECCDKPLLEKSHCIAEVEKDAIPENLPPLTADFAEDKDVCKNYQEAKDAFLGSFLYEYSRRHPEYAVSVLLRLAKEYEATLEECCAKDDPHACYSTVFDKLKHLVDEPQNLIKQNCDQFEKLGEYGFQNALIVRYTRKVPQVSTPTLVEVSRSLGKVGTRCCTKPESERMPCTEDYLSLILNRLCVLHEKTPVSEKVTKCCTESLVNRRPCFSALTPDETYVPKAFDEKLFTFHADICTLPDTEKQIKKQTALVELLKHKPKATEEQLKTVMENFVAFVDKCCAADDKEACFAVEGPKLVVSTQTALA
T1 sequence (P11226 21-248 limits assumed): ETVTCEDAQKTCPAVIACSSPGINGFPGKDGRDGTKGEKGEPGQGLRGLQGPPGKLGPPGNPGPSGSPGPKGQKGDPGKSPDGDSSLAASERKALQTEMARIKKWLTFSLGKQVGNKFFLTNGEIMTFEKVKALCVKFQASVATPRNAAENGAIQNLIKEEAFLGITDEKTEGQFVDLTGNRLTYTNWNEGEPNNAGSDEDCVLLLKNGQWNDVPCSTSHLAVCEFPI

Row | Binder | binding result [1] | binding result (BSA)
1 | recombinant MAp19 (other, UniProt O00187-2 16-185, looked up, also called rMAp19; rMAP19) TPLGPKWPEPVFGRLASPGFPGEYANDQERRWTLTAPPGYRLRLYFTHFDLELSHLCEYDFVKLSSGAKVLATLCGQESTDTERAPGKDTFYSLGSSLDITFRSDYSNEKPFTGFEAFYAAEDIDECQVAPGEAPTCDHHCHNHLGGFYCSCRAGYVLHRNKRTCSEQSL | binds | 
2 | recombinant MAp44 (mannan-binding lectin-associated protein of 44 kDa) (other, Made by transient expression of the MAp44 cDNA (imaGenes clone IRAKp961F1682Q) in 293F cells and purified on rMBL-coupled beads; also called rMAp44; rMAP44) HTVELNNMFGQIQSPGYPDSYPSDSEVTWNITVPDGFRIKLYFMHFNLESSYLCEYDYVKVETEDQVLATFCGRETTDTEQTPGQEVVLSPGSFMSITFRSDFSNEERFTGFDAHYMAVDVDECKEREDEELSCDHYCHNYIGGYYCSCRFGYILHTDNRTCRVECSDNLFTQRTGVITSPDFPNPYPKSSECLYTIELEEGFMVNLQFEDIFDIEDHPEVPCPYDYIKIKVGPKVLGPFCGEKAPEPISTQSHSVLILFHSDNSGENRGWRLSYRAAGNECPELQPPVHGKIEPSQAKYFFKDQVLVSCDTGYKVLKDNVEMDTFQIECLKDGTWSNKIPTCKKNEIDLESELKSEQVTE |  | no binding
